Measurements reported in PMC4627802, “Fine Mapping of the Interaction between C4b-Binding Protein and Outer Membrane Proteins LigA and LigB of Pathogenic Leptospira interrogans” (PLoS Neglected Tropical Diseases, 2015).

Experiments:
LigB7-8 (L. interrogans) = test: ELISA; Lig tandem-domain constructs immobilised; 1 μg of C4BP mixed with heparin (0-10 mg/ml); detected with mouse monoclonal anti-C4BP α/β chains; binding without heparin set as 100%
[1] = molecular target: LigA10-11 (L. interrogans); test: as above
[2] = molecular target: LigB9-10 (L. interrogans); test: as above
LcpA (L. interrogans) = test: ELISA; LigA, LigB or LcpA immobilised; commercial C4BP in 10 mM Na2HPO4, 1.8 mM KH2PO4 with NaCl 0 to 600 mM; detected with polyclonal rabbit anti-C4BP; binding without NaCl set as 100%
[3] = molecular target: LigBC (fragment of leptospiral immunoglobulin-like protein B, residues 631-1156) (L. interrogans); test: as above
[4] = molecular target: Human purified C4BP (α7β1) (human) (UniProt P04003); test: ELISA; increasing concentrations of Lig proteins with a fixed amount of C4BP (1 μg); Kd estimated by nonlinear regression, Y = Bmax*X/(Kd + X)
[5] = molecular target: T1, Human purified C4BP (α7β1) (human, UniProt P04003 49-597; P20851 18-252); test: as above; details: both partners purified
T1 construct: also called C4BP WT (commercial); source: bought: Complement Technology (Texas, USA), human purified; copies: 7 + 1
T1 sequence 1: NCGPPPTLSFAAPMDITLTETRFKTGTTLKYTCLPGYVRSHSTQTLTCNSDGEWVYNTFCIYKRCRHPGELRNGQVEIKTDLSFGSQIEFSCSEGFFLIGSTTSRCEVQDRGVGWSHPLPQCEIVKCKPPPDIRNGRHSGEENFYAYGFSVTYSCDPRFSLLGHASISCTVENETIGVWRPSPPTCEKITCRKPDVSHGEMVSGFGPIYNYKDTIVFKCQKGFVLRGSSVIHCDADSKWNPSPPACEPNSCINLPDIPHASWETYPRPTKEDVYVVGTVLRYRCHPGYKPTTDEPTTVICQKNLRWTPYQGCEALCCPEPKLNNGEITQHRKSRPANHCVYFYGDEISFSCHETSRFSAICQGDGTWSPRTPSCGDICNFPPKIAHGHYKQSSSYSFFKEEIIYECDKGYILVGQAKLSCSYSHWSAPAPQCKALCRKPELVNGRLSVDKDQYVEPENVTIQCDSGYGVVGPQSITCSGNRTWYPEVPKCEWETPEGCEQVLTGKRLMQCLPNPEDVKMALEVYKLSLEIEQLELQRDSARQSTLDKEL
T1 sequence 2: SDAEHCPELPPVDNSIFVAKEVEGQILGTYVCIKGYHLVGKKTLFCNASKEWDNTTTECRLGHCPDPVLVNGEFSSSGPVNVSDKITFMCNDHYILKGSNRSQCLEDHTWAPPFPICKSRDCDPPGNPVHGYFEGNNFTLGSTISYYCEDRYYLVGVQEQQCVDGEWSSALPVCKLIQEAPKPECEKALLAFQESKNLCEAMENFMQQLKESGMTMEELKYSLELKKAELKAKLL

Question: How did the percent reduction of binding with 10 mg/ml heparin (LigB7-8 (L. interrogans)) turn out when “Human purified C4BP (α7β1) (from UniProt P04003 49-597; P20851 18-252) (complex)” was run?
Answer: 45%

Question: What about the percent reduction of binding with 10 mg/ml heparin [1] of the same molecule?
Answer: 35%

Question: What about the percent reduction of binding with 10 mg/ml heparin [2] of the same molecule?
Answer: 27%

Question: And the percent decrease of binding at 150 mM NaCl (LcpA (L. interrogans))?
Answer: 30%

Question: What about the percent decrease of binding at 150 mM NaCl [3] of the same molecule?
Answer: 45%

Question: With “LigBC (fragment of leptospiral immunoglobulin-like protein B, residues 631-1156) (domain or fragment)” as the molecule, how does the Kd [4] read?
Answer: 51.6 nM

B1: LigAC (C-terminal fragment of leptospiral immunoglobulin-like protein A, residues 631-1225) (domain or fragment)
chain: LTVSNTNAKRGLGSTLKQGTVKVTASMGGIEDSVDFTVTQATLTSIEVSPTRASIAKGMTQKFTATGIFTDHSKKNITEQVTWKSSSKALSMLNAPGEEGTGKAIAVGKTTITATLEKLSGKTDITVTPAVLTSIQISPVKHSLVKGLTEKFSATGIYSDNSNKDITSSVTWHSSNNSVATISNTKGYQGQAYGTGTGTVNIKATLGNVSSQVSKLSVTAAELTEIVLNPTSSHKAKGLTENFKATGVFTDNSTKDITDQVTWKSSNAAYAKISNATGSKGVVNALSKGTSHISATLGSISSANATFQVTPARIASIEVTPNNFFLIKGLSHPFKAIGIYTDNTKTDITKQVSWSSSDPNVASIDNTFSLAGSATAIDDGKTNITATLSDSMSASTTLYVTSAVLIDIEVKPSIFVLSEGLTLQLTATGIYSDHSTHDLTQVVQWTSSKPSNIAIENTAGKKGKVTALAFGDSEFTATYDSIKSNRAWIFVNDEKLVNITISSSQVLTDKGSAQQFKAIGTFQGGSQLDLTDLVTWKSSDSKVVSISNSNDDRGLTTALSVGSSKISAIYGSIHSDSIDFEVTPEILASIKTEP
Question: How did the Kd [5] turn out when B1 was run?
Answer: 88.8 ± 7.8 nM
